Data reported in ChEMBL document CHEMBL5257037, “Side Chain Cyclized Aromatic Amino Acids: Great Tools as Local Constraints in Peptide and Peptidomimetic Design” (J Med Chem, 2016).

Substrate: CC[C@H](C)[C@H](NC(=O)[C@H](Cc1cnc[nH]1)NC(=O)[C@H](Cc1ccccc1)NC(=O)OCc1ccccc1)C(=O)O
Test: Binding affinity to angiotensin-converting enzyme (unknown origin) assessed as Km
Conditions: Homo sapiens

B1: Angiotensin-converting enzyme (Homo sapiens), P12821 (protein)
chain: MGAASGRRGPGLLLPLPLLLLLPPQPALALDPGLQPGNFSADEAGAQLFAQSYNSSAEQVLFQSVAASWAHDTNITAENARRQEEAALLSQEFAEAWGQKAKELYEPIWQNFTDPQLRRIIGAVRTLGSANLPLAKRQQYNALLSNMSRIYSTAKVCLPNKTATCWSLDPDLTNILASSRSYAMLLFAWEGWHNAAGIPLKPLYEDFTALSNEAYKQDGFTDTGAYWRSWYNSPTFEDDLEHLYQQLEPLYLNLHAFVRRALHRRYGDRYINLRGPIPAHLLGDMWAQSWENIYDMVVPFPDKPNLDVTSTMLQQGWNATHMFRVAEEFFTSLELSPMPPEFWEGSMLEKPADGREVVCHASAWDFYNRKDFRIKQCTRVTMDQLSTVHHEMGHIQYYLQYKDLPVSLRRGANPGFHEAIGDVLALSVSTPEHLHKIGLLDRVTNDTESDINYLLKMALEKIAFLPFGYLVDQWRWGVFSGRTPPSRYNFDWWYLRTKYQGICPPVTRNETHFDAGAKFHVPNVTPYIRYFVSFVLQFQFHEALCKEAGYEGPLHQCDIYRSTKAGAKLRKVLQAGSSRPWQEVLKDMVGLDALDAQPLLKYFQPVTQWLQEQNQQNGEVLGWPEYQWHPPLPDNYPEGIDLVTDEAEASKFVEEYDRTSQVVWNEYAEANWNYNTNITTETSKILLQKNMQIANHTLKYGTQARKFDVNQLQNTTIKRIIKKVQDLERAALPAQELEEYNKILLDMETTYSVATVCHPNGSCLQLEPDLTNVMATSRKYEDLLWAWEGWRDKAGRAILQFYPKYVELINQAARLNGYVDAGDSWRSMYETPSLEQDLERLFQELQPLYLNLHAYVRRALHRHYGAQHINLEGPIPAHLLGNMWAQTWSNIYDLVVPFPSAPSMDTTEAMLKQGWTPRRMFKEADDFFTSLGLLPVPPEFWNKSMLEKPTDGREVVCHASAWDFYNGKDFRIKQCTTVNLEDLVVAHHEMGHIQYFMQYKDLPVALREGANPGFHEAIGDVLALSVSTPKHLHSLNLLSSEGGSDEHDINFLMKMALDKIAFIPFSYLVDQWRWRVFDGSITKENYNQEWWSLRLKYQGLCPPVPRTQGDFDPGAKFHIPSSVPYIRYFVSFIIQFQFHEALCQAAGHTGPLHKCDIYQSKEAGQRLATAMKLGFSRPWPEAMQLITGQPNMSASAMLSYFKPLLDWLRTENELHGEKLGWPQYNWTPNSARSEGPLPDSGRVSFLGLDLDAQQARVGQWLLLFLGIALLVATLGLSQRLFSIRHRSLHRHSHGPQFGSEVELRHS
For B1, the Km was 0.01 µM.
